Assay [1] deals with T1, human OX40 expressed on cells (human, UniProt P43489 29-277).
T1 sequence: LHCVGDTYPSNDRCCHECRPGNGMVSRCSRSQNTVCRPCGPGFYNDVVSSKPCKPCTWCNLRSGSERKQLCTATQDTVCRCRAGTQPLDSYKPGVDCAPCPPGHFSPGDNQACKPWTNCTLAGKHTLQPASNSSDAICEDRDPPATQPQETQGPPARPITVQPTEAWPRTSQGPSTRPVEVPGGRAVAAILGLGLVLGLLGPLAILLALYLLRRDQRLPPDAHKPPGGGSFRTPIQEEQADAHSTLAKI
Kind of assay: cell-based or functional assay.

In assay [2] the target is T1, human OX40 expressed on cells. Kind of assay: flow cytometry competition on human OX40-expressing Jurkat cells; OX40L titrated against 0.2 µg/mL Hu3738 (competitor). Background: In flow cytometry, cells or beads pass a laser one at a time.
In assay [3] the target is T2, recombinant soluble human OX40 ECD (residues 1-216) (human, UniProt P43489 29-216).
T2 construct: Purchased from Creative Biomart and further purified by gel filtration; also called recombinant extracellular domain of human OX40
T2 sequence: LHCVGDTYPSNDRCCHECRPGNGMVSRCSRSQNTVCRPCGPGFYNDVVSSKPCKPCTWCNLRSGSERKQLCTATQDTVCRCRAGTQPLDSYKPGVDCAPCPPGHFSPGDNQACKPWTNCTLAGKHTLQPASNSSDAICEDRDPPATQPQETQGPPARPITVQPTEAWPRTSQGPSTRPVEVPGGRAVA
Kind of assay: SPR (Biacore T200, 25 °C), antibody captured by anti-Fc, OX40 ECD as analyte. How it is done: The binding kinetics of an anti-OX40 antibody to recombinant soluble OX40 ECD (extracellular domain) were determined by surface plasmon resonance-based measurements made on a Biacore T200 instrument (GE Healthcare) at 25° C. using an anti-Fc capture assay approach. Recombinant extracellular domains (ECDs) of human OX40 (residues 1-216) and rhesus macaque OX40 (residues 28-214) were purchased (Creative Biomart) and further purified by gel filtration using Superdex200 (GE Healthcare) in 10 mM 4-(2-hydroxyethyl)-1-piperazineethanesulfonic acid (HEPES), pH 7.4, 150 mM NaCl, 3 mM ethylenediaminetetraacetic acid (EDTA). Rhesus macaque (Macaca mulatta) OX40 is identical to cynomolgus monkey (Macaca fascicularis) OX40 (SEQ ID NO:2) at the amino acid level. Chip preparation and binding kinetic measurements were made in the assay buffer HBS-EP+(10 mM HEPES, pH 7.4, 150 mM NaCl, 3 mM EDTA, 0.05% Tween 20). For anti-Fc capture chip preparation, approximately 2000 Resonance Units (RU) of goat anti-human IgG Fc polyclonal antibody (Thermo Fisher Scientific Inc.), diluted to 25 μg/mL in 10 mM sodium acetate (pH 4.5), was directly immobilized across a CMS biosensor chip using a standard amine coupling kit according to manufacturer's instructions and procedures. Unreacted moieties on the biosensor surface were blocked with ethanolamine. For binding kinetics measurements each assay cycle consisted of the following steps: 1) capture of test anti-OX40 antibody on test surface only; 2) analyte injection (OX40 ECD or buffer only) over both reference and test surface, 240 μL at 80 μL/min, after which the dissociation was monitored for 900 seconds at 80 μL/min; 3) regeneration of capture surface by 10 mM Glycine-HCl, pH 1.5 injections over both reference and test surface. During the assay, all measurements were referenced against the capture surface alone (i.e., with no captured test antibody) and buffer-only injections were used for double referencing. OX40 injections ranged in concentration from 900 nM or 300 nM to 11.11 nM in a randomized 9- or 3-fold dilution series, respectively. Data were processed and fitted globally to a 1:1 binding model using Biacore T200 Evaluation software to determine the binding kinetic rate constants, kₐ (M⁻¹s⁻¹) and kd (s¹), and the equilibrium dissociation constant KD (M).

Assay [4] addresses T1, human OX40 expressed on cells. Kind of assay: cell-based or functional assay. The source holds these as a separate data set.
Assay [5] has the same target. Kind of assay: competition by flow cytometry on Jurkat-NF-κB-huOX40 cells; competitor: ALEXA FLUOR 647-labeled Hu3738 at 2 µg/mL. How it is done:
Analysis was performed by flow cytometry.

The target is the same in assay [6]. Kind of assay: cell-based or functional assay. The source holds these as a separate data set.
Assay [7] has the same target. Kind of assay: flow cytometry on Jurkat NF-κB reporter cells expressing human OX40. How it is done:
A Jurkat NF-κB reporter cell line expressing human OX40 protein was cultured in DMEM containing 10% FBS and penicillin/streptomycin (pen/strep). For the binding assay, each cell line was resuspended at 5 million cells per mL. 50 μL (250,000 cells)/well were transferred to each well of a 500 μL polypropylene 96-well plate (Nunc). A 2× stock of test anti-OX40 antibody or isotype control mAb was prepared in a separate dilution plate at 666, 333, 111, 37.03, 12.34, 4.11, 0.457, 0.152, 0.0508, 0.0169, 0.00564 nM in culture media. Each antibody (50 μL/well) was transferred into respective wells of the assay plate. Cells were incubated with the test anti-OX40 antibody or isotype control antibodies for 30 minutes at 4° C. and washed twice with 250 μL/well of PBS by centrifuging at 800 rpm for 3 minutes. Bound antibody was detected with Cy5-Donkey anti-human IgG (H+L) (Jackson ImmunoResearch) diluted to 2 μg/mL (50 μL/well) in PBS for 30 minutes at 4° C. Cells were washed once with 250 μL/well of PBS, resuspended in PBS containing 1% Formaldehyde and analyzed on a dual laser FACSCalibur (Becton Dickinson).

This is an account of results in patent US20210017289A1 (AbbVie / Abbott, published 2021).

By IC50 is commonly meant the concentration at which inhibition is half-maximal. One may read the Kd as the constant that tells how readily two partners part at equilibrium. By koff is commonly meant a measure of how fast the partners let go of each other. Usually EC50 stands for the concentration giving half of the maximal effect.

“And” between values parts separate entries of the source, which are not always exact repeats. Identical values can stand only once. Like-named read-outs stand apart in the source and are kept apart here.

Isotype control antibody: in assay [1], the EC50 With Cross-linker (nM), NF-κB signaling was greater than 100 µg/mL and the EC50 Without Cross-linker (nM), NF-κB signaling is greater than 100 µg/mL.

B1: soluble human OX40 ligand (OX40L) (ligand)
chain: QVSHRYPRIQSIKVQFTEYKKEKGFILTSQKEDEIMKVQNNSVIINCDGFYLISLKGYFSQEVNISLHYQKDEEPLFQLKKVRSVNSLMVASLTYKDKVYLNVTTDNTSLDDFHVNGGELILIHQNPGEFCVL
notes: also called CD252; TNFSF4
As for B1, in assay [2], the IC50 was 0.067 nM and 0.01 µg/mL.

B2: Hu3739 (antibody, V domains shown)
VH: EVQLVQSGAEVKKPGSSVKVSCKASGFNIKDTYMHWVRQAPGQGLEWIGRIDPANGNTKYDPKFQGRATITADTSTNTAYMELSSLRSEDTAVYYCARGGPAWFVYWGQGTLVTVSS
VL: DIQMTQSPSSLSASVGDRVTITCRASQDISNYLNWYQQKPGKAPKLLIYYTSRLRSGLPSRFSGSGSGTDYTLTISSLQPEDFATYYCQQGNTLPWTFGGGTKVEIKR
notes: Humanized antibody; also called Hu3739 VH.1b / Hu3739 VL.1b
Regarding B2, in assay [3], the dissociation constant (Kd) stood at 360 nM and the koff was 0.016 s⁻¹.

B3: Hu3741 (antibody, V domains shown)
VH: EVQLVESGGGLVQPGGSLRLSCAVSGFSLTSYGVHWVRQAPGKGLEWLGVIWSGGSTDYNAAFISRLTISKDNSKSTVYLQMNSLRAEDTAVYYCAREEFDYWGQGTTVTVSS
VL: DIQMTQSPSSLSASVGDRVTITCRASQDISNYLNWFQQKPGKAPKLLIYYTSRLHSGVPSRFSGSGSGTDYTLTISSLQPEDFATYYCQQGYTLPPTFGGGTKVEIKR
notes: Humanized antibody; also called Hu3741 VH.2b / Hu3741 VL.1c
B3: in assay [3], the Kd stood at 3000 nM and the dissociation rate constant (koff) came out at 0.31 s⁻¹.

B4: 1A7 (antibody, human IgG1, V domains shown)
VH: EVQLQQSGPELVKPGASVKISCKASGYTFTDSYMSWVKQSHGKTLEWIGDMYPDNGDSSYNQKFREKVTLTVDKSSTTAYMEFRSLTSEDSAVYYCVLAPRWYFSVWGTGTTVTVSS
VL: DIQMTQTTSSLSASLGDRVTISCRASQDISNYLNWYQQKPDGTVKLLIYYTSRLRSGVPSRFSGSGSGKDYFLTISNLEQEDVAAYFCQQGHTLPPTFGGGTKLEIK
notes: 2015/0307617; also called literature anti-OX40 antibody 1A7
B4: in assay [4], the “EC50 With Cross-linker (nM), NF-κB signaling” value (shortened to “EC50 With Cross-linker (nM)”) stood at 0.066 nM and the “EC50 Without Cross-linker (nM), NF-κB signaling” value (“EC50 Without Cross-linker (nM)” for short) is greater than 100 µg/mL. In assay [5], the “IC50 (read off the curve)” value was roughly 0.6 µg/mL.

B5: 119-122 (antibody, human IgG1, V domains shown)
VH: EVQLVESGGGLVQPGGSLRLSCAASEYEFPSHDMSWVRQAPGKGLELVAAINSDGGSTYYPDTMERRFTISRDNAKNSLYLQMNSLRAEDTAVYYCARHYDDYYAWFAYWGQGTMVTVSS
VL: EIVLTQSPATLSLSPGERATLSCRASKSVSTSGYSYMHWYQQKPGQAPRLLIYLASNLESGVPARFSGSGSGTDFTLTISSLEPEDFAVYYCQHSRELPLTFGGGTKVEIK
As for B5, in assay [6], the “EC50 With Cross-linker (nM)” value turned out to be 0.34 nM and the “EC50 Without Cross-linker (nM)” value is greater than 100 µg/mL.

B6: 106-222 (antibody, human IgG1, V domains shown)
VH: QVQLVQSGSELKKPGASVKVSCKASGYTFTDYSMHWVRQAPGQGLKWMGWINTETGEPTYADDFKGRFVFSLDTSVSTAYLQISSLKAEDTAVYYCANPYYDYVSYYAMDYWGQGTTVTVSS
VL: DIQMTQSPSSLSASVGDRVTITCKASQDVSTAVAWYQQKPGKAPKLLIYSASYLYTGVPSRFSGSGSGTDFTFTISSLQPEDIATYYCQQHYSTPRTFGQGTKLEIK
notes: 2013/0280275
As to B6, in assay [6], the “EC50 With Cross-linker (nM)” value was 0.63 nM and the “EC50 Without Cross-linker (nM)” value was greater than 100 µg/mL. Moreover, in assay [5], the “IC50 (read off the curve)” value is roughly 1 µg/mL.

B7: 18D8 (antibody, human IgG1, V domains shown)
VH: EVQLVESGGGLVQPGRLSRLSCAASGFTFDDYAMHWVRQAPGKGLEWVSGISWNSGSIGYADSVKGRFTISRENAKNSLYLQMNSLRAEDTALYYCAKDQSTADYYFYYGMDVWGQGTTVTVSS
VL: EIVVTQSPATLSLSPGERATLSCRASQSVSSYLAWYQQKPGQAPRLLIYDASNRATGIPARFSGSGSGTDFTLTISSLEPEDFAVYYCQQRSNWPTFGQGTKVEIK
notes: also called literature anti-OX40 antibody 18D8
Consider B7, for which, in assay [6], the “EC50 With Cross-linker (nM)” value turned out to be 0.5 nM and the “EC50 Without Cross-linker (nM)” value is greater than 100 µg/mL. A half-maximal effect in assay [7] (EC50) was put at 0.258 µg/mL. In assay [3], the Kd stood at 9.1 nM and the koff amounted to 0.11 s⁻¹.
